Two substances from paper PMC7733947, “The Key Glycolytic Enzyme Phosphofructokinase Is Involved in Resistance to Antiplasmodial Glycosides” (mBio, 2020) can be followed below.

For this data set, the system named is Nc1ncnc2c1ncn2[C@@H]1O[C@H](COP(=O)(O)O)[C@@H](O)[C@H]1O. Nature of the data set: purified protein.

PfHAD1 (Plasmodium falciparum 3D7): the Km was 4.11 ± 0.88 mM.
Then PfHAD2 (Plasmodium falciparum 3D7), with 4.09 ± 0.55 mM.

In general, Km refers to the substrate concentration at which the rate is half of its maximum.
